Biological target: the molecule itself
Assay: SEC-MALS; 14-3-3ζ variants alone, injected at 50 μM initial concentration; Superdex 200 10/300 GL; 50 mM Tris pH 7.4, 150 mM NaCl, 0.5 mM TCEP; room temperature; dimer to monomers

B1: 14-3-3ζ S58E (natural protein, human)
chain: MDKNELVQKAKLAEQAERYDDMAACMKSVTEQGAELSNEERNLLSVAYKNVVGARRSEWRVVSSIEQKTEGAEKKQQMAREYREKIETELRDICNDVLSLLEKFLIPNASQAESKVFYLKMKGDYYRYLAEVAAGDDKKGIVDQSQQAYQEAFEISKKEMQPTHPIRLGLALNFSVFYYEILNSPEKACSLAKTAFDEAIAELDTLSEESYKDSTLIMQLLRDNLTLWTS
notes: 14-3-3 protein zeta with Glu at position 58 (ζ-isoform numbering); also called S58E variant; phosphomimetic S58E; source: E. coli, purified
stoichiometry N: 2
